US20240352452, “CRISPR-BASED PROTEIN BARCODING AND SURFACE ASSEMBLY” (The Brigham and Women's Hospital, Inc., published 2024)

Legend:
dCas9-6His [1] = target: T1, dCas9-6His (UniProt Q99ZW2 SEQ:1-1368); experiment: dsDNA microarray, perfect match; PAM NGG; settings: tags: C-terminal 6His (pdCas9-bacteria, Addgene #44249 derived); label: Cy3-dUTP
dCas9-scFv B1-182.1 = dCas9-scFv B1-182.1 (UniProt Q99ZW2 SEQ:1-1368); experiment: dsDNA microarray; detected via spike antigen and CR3022; PAM NGG; settings: tags: C-terminal anti-spike scFv B1-182.1 fusion and 6His (Addgene #186421); label: Cy3-dUTP
dCas9-myc [2] = target: T2, dCas9-myc (UniProt Q99ZW2 SEQ:1-1368); experiment: dsDNA microarray, anti-myc; PAM NGG; settings: label: Cy3-dUTP
dCas9-myc [3] = target: T2, dCas9-myc; experiment: no-PAM control; binding depended on PAM; settings: label: Cy3-dUTP
dCas9-HA [4] = target: T3, dCas9-HA (UniProt Q99ZW2 SEQ:1-1368); experiment: dsDNA microarray, anti-HA; PAM NGG; settings: label: Cy3-dUTP
dCas9-6His [5] = target: T1, dCas9-6His; experiment: dsDNA microarray, anti-6His; PAM NGG; 37 C 16 h, 50 mM Tris pH 7.4, 150 mM NaCl; settings: tags: C-terminal 6His (pdCas9-bacteria, Addgene #44249 derived); label: Cy3-dUTP
dCas9-6His [6] = target: T1, dCas9-6His; experiment: off-target probe with PAM; dsDNA microarray; settings: tags: C-terminal 6His (pdCas9-bacteria, Addgene #44249 derived); label: Cy3-dUTP
dCas9-HA [7] = target: T3, dCas9-HA; experiment: no-PAM control; binding depended on PAM; settings: label: Cy3-dUTP

B1: sgRNA spacer AGAGACU ; probe for G3 (ssRNA ; dsDNA)
RNA: AGAGACUGCCCGACACAUCUGUUUUAGAGCUAGAAAUAGCAAGUUAAAAUAAGGCUAGUCCGUUAUCAACUUGAAAAAGUGGCACCGAGUCGGUGC
DNA 1: GAGCGACGCTGCACCAAGATGTGTCGGGCAGTCTCTCCCGACCTCACCCG
DNA 2: CGGGTGAGGTCGGGAGAGACTGCCCGACACATCTTGGTGCAGCGTCGCTC
- binding result (dCas9-6His [1]): binds

B2: sgRNA spacer CACUGUU ; probe for G4 (ssRNA ; dsDNA)
RNA: CACUGUUUAACAAGCCCGUCGUUUUAGAGCUAGAAAUAGCAAGUUAAAAUAAGGCUAGUCCGUUAUCAACUUGAAAAAGUGGCACCGAGUCGGUGC
DNA 1: GAGCGACGCTGCACCAGACGGGCTTGTTAAACAGTGCCCGACCTCACCCG
DNA 2: CGGGTGAGGTCGGGCACTGTTTAACAAGCCCGTCTGGTGCAGCGTCGCTC
- binding result (dCas9-6His [1]): binds

B3: sgRNA spacer UCCAUAG ; probe for G5 (ssRNA ; dsDNA)
RNA: UCCAUAGAUUUCUCCGUGAGGUUUUAGAGCUAGAAAUAGCAAGUUAAAAUAAGGCUAGUCCGUUAUCAACUUGAAAAAGUGGCACCGAGUCGGUGC
DNA 1: GAGCGACGCTGCACCACTCACGGAGAAATCTATGGACCCGACCTCACCCG
DNA 2: CGGGTGAGGTCGGGTCCATAGATTTCTCCGTGAGTGGTGCAGCGTCGCTC
- binding result (dCas9-6His [1]): binds
- binding result (dCas9-scFv B1-182.1): binds

B4: sgRNA spacer AUAAAAG ; probe for G2 (ssRNA ; dsDNA)
RNA: AUAAAAGAAACCCUCCGCAUGUUUUAGAGCUAGAAAUAGCAAGUUAAAAUAAGGCUAGUCCGUUAUCAACUUGAAAAAGUGGCACCGAGUCGGUGC
DNA 1: GAGCGACGCTGCACCAATGCGGAGGGTTTCTTTTATCCCGACCTCACCCG
DNA 2: CGGGTGAGGTCGGGATAAAAGAAACCCTCCGCATTGGTGCAGCGTCGCTC
- binding result (dCas9-myc [2]): binds

B5: sgRNA spacer AUAAAAG ; probe for G2, no PAM (ssRNA ; dsDNA)
RNA: AUAAAAGAAACCCUCCGCAUGUUUUAGAGCUAGAAAUAGCAAGUUAAAAUAAGGCUAGUCCGUUAUCAACUUGAAAAAGUGGCACCGAGUCGGUGC
DNA 1: GAGCGACGCTGCACGAATGCGGAGGGTTTCTTTTATCCCGACCTCACCCG
DNA 2: CGGGTGAGGTCGGGATAAAAGAAACCCTCCGCATTCGTGCAGCGTCGCTC
- binding result (dCas9-myc [3]): no binding

B6: sgRNA spacer CCGUACC ; probe for G1 (ssRNA ; dsDNA)
RNA: CCGUACCUAGAUACACUCAAGUUUUAGAGCUAGAAAUAGCAAGUUAAAAUAAGGCUAGUCCGUUAUCAACUUGAAAAAGUGGCACCGAGUCGGUGC
DNA 1: GAGCGACGCTGCACCATTGAGTGTATCTAGGTACGGCCCGACCTCACCCG
DNA 2: CGGGTGAGGTCGGGCCGTACCTAGATACACTCAATGGTGCAGCGTCGCTC
- binding result (dCas9-HA [4]): binds
- binding result (dCas9-6His [5]): binds

B7: sgRNA spacer CCGUACC ; probe for G2 (ssRNA ; dsDNA)
RNA: CCGUACCUAGAUACACUCAAGUUUUAGAGCUAGAAAUAGCAAGUUAAAAUAAGGCUAGUCCGUUAUCAACUUGAAAAAGUGGCACCGAGUCGGUGC
DNA 1: GAGCGACGCTGCACCAATGCGGAGGGTTTCTTTTATCCCGACCTCACCCG
DNA 2: CGGGTGAGGTCGGGATAAAAGAAACCCTCCGCATTGGTGCAGCGTCGCTC
- binding result (dCas9-6His [6]): no binding

B8: sgRNA spacer CCGUACC ; probe for G1, no PAM (ssRNA ; dsDNA)
RNA: CCGUACCUAGAUACACUCAAGUUUUAGAGCUAGAAAUAGCAAGUUAAAAUAAGGCUAGUCCGUUAUCAACUUGAAAAAGUGGCACCGAGUCGGUGC
DNA 1: GAGCGACGCTGCACGATTGAGTGTATCTAGGTACGGCCCGACCTCACCCG
DNA 2: CGGGTGAGGTCGGGCCGTACCTAGATACACTCAATCGTGCAGCGTCGCTC
- binding result (dCas9-HA [7]): no binding
